Results from patent US20260256741A1, “ANTICANCER MALEIMIDE DERIVATIVES FOR USE WITH IMMUNE CHECKPOINT BLOCKADE” (BROWN UNIVERSITY, priority 2022, published 2026).

Tests used:
HCT-116 CRC cells = assay: Western blot analysis of HCT-116 CRC cells; type: cell-based, human; conditions: 250 ng/mL IFN-γ
Description: (§1) Recombinant Human TNF-α (Cat #300-01A, PeproTech, Rocky Hill, NJ, USA) and Recombinant Human IFN-γ (Cat #300-02, Peprotech, Rocky Hill, NJ, USA) were purchased for use in western blot analysis while rhTRAIL was generated in-house. Kim et al., J Biol Chem., 279(38):40044-52 (2004).
(§2) Cells were plated in a 6-well plate and incubated overnight before the spent media was replaced with drugged media. Drug treatment lasted for indicated durations. Protein was extracted using radioimmunoprecipitation (RIPA) assay buffer (Cat #R0278, Sigma-Aldrich, St. Louis, MO) containing cOmplete™, Mini, EDTA-free Protease Inhibitor Cocktail (Cat #4693159001, Roche, Basel, Switzerland) from sub-confluent cells. Denaturing sample buffer was added, samples were boiled at 95 degrees for 10 minutes, and an equal amount of protein lysate was electrophoresed through NuPAGE™ 4 to 12%, Bis-Tris, 1.5 mm, Mini Protein Gels (Invitrogen, Waltham, MA) then transferred to PVDF membranes. The PVDF membrane was blocked with 5% non-fat milk (Sigma-Aldrich, St. Louis, MO) in 1×TTBS. Primary antibodies were incubated with the transferred PVDF membrane in blocking buffer at 4° C. overnight. Secondary antibodies used included Goat anti-Rabbit IgG (H+L) Secondary Antibody, HRP (Cat #31460, Invitrogen, Waltham, MA), and Goat anti-Mouse IgG (H+L) Secondary Antibody, HRP (Cat #31430, Invitrogen, Waltham, MA). Signal was detected using Pierce™ ECL Western Blotting Substrate (Cat #32106, Thermo Scientific, Waltham, MA, USA) and a Syngene Imaging System (RRID: SCR_015770).

HT-29 CRC cells = assay: Western blot analysis of HT-29 CRC cells; type: cell-based, human; conditions: 250 ng/mL IFN-γ
Description: as §1, §2

B1: IFN-γ: Recombinant Human IFN-γ (Peprotech) used to treat tumor cells for western blot (protein, UniProt P01579 24-161, looked up)
Interferon gamma: QDPYVKEAENLKKYFNAGHSDVADNGTLFLGILKNWKEESDRKIMQSQIVSFYFKLFKNFKDDQSIQKSVETIKEDMNVKFFNSNKKKRDDFEKLTNYSVTDLNVQRKAIHELIQVMAELSPAAKTGKRKRSQMLFRG
HCT-116 CRC cells
  gasdermin B expression: increase in gasdermin B expression
HT-29 CRC cells
  gasdermin B expression: increase in gasdermin B expression
